Measured values published in patent publication US8445240B2, “Termite enzymes and uses thereof for in vitro conversion of lignin-containing materials to fermentable products” (University of Florida Research Foundation, Inc., priority 2009, dated 2013).

What was measured:
[1] = Lignin alkali metabolism by RfLacA, HPLC analysis; type: biochemical; conditions: 1% w/v, pH 7.5, 16 hr, 32° C.
[2] = Glucose release from pine sawdust by recombinant enzymes and mixtures; type: biochemical; conditions: 2% w/v, 18 hrs, 37° C., pH 7
Experimental: All reactions were performed in 0.1 M sodium acetate buffer containing 10 mM calcium chloride (pH 7). The two feedstock substrates were pine sawdust (=lignin+cellulose+hemicellulose) and beechwood xylan (=lignin+hemicellulose). Feedstocks were tested at 2% w/v (10 mg in 0.5 mL buffer). Reactions were run for 18 hrs at 37° C. with shaking at 220 rpm in vented 1.5 mL plastic tubes.
Protein volumes used per assay were 10 μL of each of the Cell-1, β-glucosidase, and Laccase 6 recombinant protein preparations. These loading volumes provided 8.5, 7.9 and 2.0 μg of each protein, respectively, per reaction. The storage buffer for Cell-1 and β-glucosidase was 0.1 M sodium acetate, 0.15 M sodium chloride, and 0.5 M calcium chloride (pH 5.8). The storage buffer for Laccase 6 was 0.1M boric acid, phosphoric acid, and acetic acid (pH 7.0).
Reactions were stopped after 18 hours by the addition of 10 μL of 0.2 Methylene-diamine tetra-acetic acid and centrifuged for 5 min at 16,000×g. Glucose detection was performed in triplicate on 125 μL aliquots of each reaction supernatant. The entire experiment was replicated three times. Glucose release was measured using the Autokit Glucose reagent kit (Wako Chemical, Richmond, Va.) at a volume of 125 μL per determination. Glucose was quantified based on absorbance at 505 nm relative to glucose standard curves. Standard curves were prepared in eight serial dilutions downward from 0.6 mM in sodium acetate-calcium chloride reaction buffer.

[3] = Characterisation of recombinant RfLacA and RfLacB isoforms; type: biochemical
[4] = E. coli-expressed Cell-1 against exoglucanase and β-glucosidase substrates; type: biochemical; conditions: Ni-purified active fractions
Experimental: Soluble fractions obtained after 19° C. IPTG induction were subjected to Ni-chromatography for purification. The His-tagged Cell-1 was retained on Ni columns and eluted in a single peak of CMC activity after the introduction of imidazole elution buffer.

[5] = Preliminary stability test of purified recombinant Cell-1; type: physicochemical; conditions: incubation at 65° C. or 26° C. for 65 hr
From the text: An approximately 48 kDa band was present in baculovirus-infected larvae, but absent from uninfected and blank virus controls. Following purification and concentration the recombinant Cell-1 protein migrated as a single band at approximately 48 kDa. […] In addition to endoglucanase activity (the expected activity for Cell-1), exoglucanase and β-glucosidase activities were also investigated using the substrates pNPC and pNPG. All three activities were present in both uninfected and blank-virus-infected T. ni larvae, with exoglucanase and β-glucosidase activity being the strongest. However, only endoglucanase activity remained for purified Cell-1. In agreement with SDS-PAGE results, it was enriched at least 10-fold relative to clarified supernatants of infected larvae.

[6] = Colorimetric β-1,4-endoglucanase assay of Cell-1 on CMC; type: biochemical; conditions: BEVS-expressed; 100 mM sodium acetate pH 6.5, 25° C.
Experimental: Colorimetric β-1,4-endoglucanase enzyme assays: Six total substrates were tested: CMC (carboxymethyl cellulose), pNPG (p-nitrophenyl-beta-D-glucopyranoside), pNPC2 (p-nitrophenyl-beta-D-cellobioside), pNPC3 (p-nitrophenyl-beta-D-cellotrioside), pNPC4 (p-nitrophenyl-beta-D-cellotetraoside), and pNPC5 (p-nitrophenyl-beta-D-cellopentaoside). All assay methods were carried out under optimal conditions (Zhou et al., (2007) Gene 395:29-39).
(FIG. 7). For subsequent characterizations, the 1.5% CMC concentration was used. pH studies were performed by dissolving 1.5% CMC in two different buffer systems: 100 mM sodium acetate (pH 3-6.5) and 100 mM sodium phosphate (pH 7-10.5), as shown in FIG. 8. […] Temperature-cofactor studies were performed using 1.5% CMC dissolved in 100 mM sodium phosphate (pH 7) alone, plus 4 mM EDTA (final concentration), or plus 10 mM calcium chloride (final concentration). Pre-incubations took place for 0-5 days at 25° C. or 0-60 min at 60° C. or 70° C.; reactions were terminated by the combination of adding stop solution and boiling for 10 min, and then assays were read at 25° C. (FIG. 9).

glucose release from pine sawdust (in words) [2] | glucose release from pine sawdust [2] | Molecule | action on lignin alkali [1] | oxidation of ABTS and syringaldazine [3] | activity against pNPC and pNPG [4] | protein stability in purified form [5] | Km against CMC [6] | Vmax against CMC [6]
No glucose release was detectable | – | RfLacA: recombinant R. flavipes gut laccase isoform 1, clone Lac6, SEQ ID NO.: 8 (protein, Reticulitermes flavipes; amino acid sequence Laccase Lacc-6) LIRLTIGQAVVSTQSTREAVVSTQSTRDTALSVYRSDAYIMLPCVLLACAIGVASATSVLLNSYLQPNDDIDRNTYLLNAKSNNCARICNGTEAPKICYYQWTIENYVTLSEACDNCPLNVTACYNAQCITADGYERSILSVNRKLPGPSIEVCLRDRVIVDITNNMAGRTTSIHWHGVFQKGSQYMDGVPMVTQCTIHEGDTFRYDFIANNEGTHFWHSHDGLQKLDGVTGNLVVRVPKNFDPNGQLYDFDLPEHKIFISDWLHLSADDHFPGLRATNPGQDANSFLINGRGRTLIGTQSTNTPYAQINVQWGRRYRLRIVGSLCTVCPTQLTIDGHKITVIATDGNSVAPARVDSLIIYSGERYDVVLEATNTEGSYWIHLKGLATCVGSRVYQLGVLQYENTTTNKLHALTPDPGYDGFPQPASYRVLNPENASCSIGSTGLCVTQLANSDPVPRDILTQLPDINYLLQFGFETFDSRSFFKAYDRYFVSPFLELLSSTVNNISFVSPPSPLLSQRGDVPDDILCPTGADGLPQCPGGNSYCTCVHVIKIKLGALVQIILSDQSPKSDLNHPFHIHGHAFYVLGMGQYAAGQTAQDLLNSLKSNVSSVSPAPVLKDTVAVPSGGYAIIKFRPKNPGYWFLHCHFLYHVATGMSVVLQVGETSDYPPTPDGFPKCGSFTPPVNTN | evidence of RfLacA action on lignin | unable to oxidize | – | – | – | –
– | 3.70 pmol/min | Cell-1: host-derived β-1,4-endoglucanase (GHF9) from Reticulitermes flavipes, SEQ ID NO.: 2; recombinant, BEVS or E. coli expressed (protein, Reticulitermes flavipes; amino acid sequence Beta-1,4-endoglucanase (Cell-1), recombinant, BEVS or E. coli expressed) MKVFVCLLSALALCQAAYDYKTVLSNSLLFYEAQRSGKLPSDQKVTWRKDSALNDKGQKGEDLTGGYYDAGDFVKFGFPMAYTVTVLAWGVIDYESAYSAAGALDSGRKALKYGTDYFLKAHTAANEFYGQVGQGDVDHAYWGRPEDMTMSRPAYKIDTSKPGSDLAAETAAALAATAIAYKSADATYSNNLITHAKQLFDFANNYRGKYSDSITDAKNFYASGDYKDELVWAAAWLYRATNDNTYLTKAESLYNEFGLGNWNGAFNWDNKISGVQVLLAKLTSKQAYKDKVQGYVDYLISSQKKTPKGLVYIDQWGTLRHAANSALIALQAADLGINAATYRAYAKKQIDYALGDGGRSYVVGFGTNPPVRPHHRSSSCPDAPAVCDWNTYNSAGPNAHVLTGALVGGPDSNDSYTDARSDYISNEVATDYNAGFQSAVAGLLKAGV | – | – | no activity | no protein degradation | 1.496 % w/v | 1.469 pmol/min/mg
